Source: patent publication US7608412

Biological target: GST-aPKCt
Experiment: co-immunoprecipitation from HEK cells transfected with HA-GSK3β, GST-aPKCt and myc-p62; anti-HA IP, anti-GST blot, densitometry; with against without p62

Hemagglutinin (HA)-tagged GSK3β (enzyme), sequence (P49841 whole entry): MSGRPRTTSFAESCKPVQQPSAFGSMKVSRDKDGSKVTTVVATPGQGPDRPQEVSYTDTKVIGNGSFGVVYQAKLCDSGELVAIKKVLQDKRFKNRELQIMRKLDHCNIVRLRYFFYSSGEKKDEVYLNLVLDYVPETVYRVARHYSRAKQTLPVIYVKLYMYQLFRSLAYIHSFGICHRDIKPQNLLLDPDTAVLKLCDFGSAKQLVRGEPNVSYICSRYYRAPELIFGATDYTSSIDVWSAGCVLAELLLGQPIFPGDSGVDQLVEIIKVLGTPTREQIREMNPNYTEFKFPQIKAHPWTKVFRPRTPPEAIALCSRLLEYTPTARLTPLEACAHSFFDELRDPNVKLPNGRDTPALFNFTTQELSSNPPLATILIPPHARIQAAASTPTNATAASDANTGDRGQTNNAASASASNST

Q: How did the fold enhancement of the interaction in the presence of p62 turn out when “Hemagglutinin (HA)-tagged GSK3β (enzyme)” was run?
A: The fold enhancement of the interaction in the presence of p62 was 2 fold.
